Assay results as given in US20240327512A1 (DUKE UNIVERSITY, published 2024).
Changes are numbered by the printed parent chain.

T1: human TREM2 (Triggering Receptor Expressed on Myeloid cells-2), wild-type (human, UniProt Q9NZC2 19-230)
T1 construct: whole, on cells; also called wt TREM2; human wild-type TREM2
T1 sequence (looked up): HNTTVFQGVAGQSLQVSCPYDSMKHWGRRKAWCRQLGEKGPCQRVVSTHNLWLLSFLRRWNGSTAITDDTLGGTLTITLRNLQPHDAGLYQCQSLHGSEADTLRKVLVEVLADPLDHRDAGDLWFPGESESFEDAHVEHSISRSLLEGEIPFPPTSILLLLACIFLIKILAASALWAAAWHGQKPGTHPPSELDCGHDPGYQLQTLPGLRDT

B1: antibody clone 21A3 (antibody, V domains shown)
VH: EVKLLESGGGLVQPGGSMRLSCAASGFTFTDFYMNWIRQPAGKAPEWLGLIRNKANGYTTQYNPSVKGRFTISRDNTQNMLYLQMNTLRGEDTATYYCARIGINNGGSLDYWGQGVMVTVSS
VL: DILINQSPASLTVSAGEKVTMSCKSSQSLLYSEKNQDYLAWYQQKPGQSPKLLMYGASYRHTGVPDRFTGSGSGTDFTLTISSVQAEDLADYYCEQTYSYPYTFGAGTKLELK
notes: Rat monoclonal IgG from hybridoma; also called TREMX antibody
B2: antibody clone 1G6 (antibody, V domains shown)
VH: B1 VH with M18L, A23V, Y58F, Q61E, N79H, G90A
VL: B1 VL with A15T, K34N, N35K, S49F, M54I, Y59N, S82N, S83I
notes: as for B1
B3: antibody clone 7A12 (antibody, V domains shown)
VH: B1 VH
VL: B1 VL
notes: as for B1
B4: antibody clone 8A11 (antibody, V domains shown)
VH: B1 VH with A55T, N56K, Q61E, P64T, T87S, G90P, I103V
VL: B1 VL with N5I, E17A, K18R, K34N, S49F, M54I, Y59N
notes: as for B1
B5: antibody clone 15C5 (antibody, V domains shown)
VH: B1 VH with N56Y, Q61E, N79D, G90A, N105Y
VL: B1 VL with M21V, K34S, S49F, M54I, D91H
notes: as for B1
B6: antibody clone 14D3 (antibody, V domains shown)
VH: B1 VH with S7F, K43R, A55T, N56K, Q61E, P64R, T87S, G90P, I103V
VL: B1 VL with N5I, E17A, K18R, K34N, S49F, M54I, Y59N
notes: as for B1
B7: antibody clone 18F9 (antibody, V domains shown)
VH: B1 VH with A23V, A24V, P40A, A55V, T59R, Q61E, T77I, G90A
VL: B1 VL with K34N, S49F, M54I, Y59N
notes: as for B1
B8: antibody clone 10C3 (antibody, V domains shown)
VH: B1 VH with K43E, A44T, A55T, N56K, Q61E, T87S, G90P, I103T
VL: B1 VL with N5I, E17A, K18R, K34N, S49F, M54I, Y59N
notes: as for B1
B9: antibody clone 14D8 (antibody, V domains shown)
VH: B1 VH with Q61V
VL: B1 VL with A15T, K24R, S49F, M54I
notes: as for B1
B10: antibody clone 9D10 (antibody, V domains shown)
VH: EVQLVESGGGLVQPGRSLKLSCAASGFTFSDYGMAWVRQAPTKGLEWVASISNSGGRTFYRDSVKGRFTVSRDNAKSTLYLQMDSLRSEGTATYYCTTIGGGSTFDYWGQGVMVTVSS
VL: DVVMTQTPPSLSVAIGQSVSISCKSSQSLVYSDGKTYLHWLLQSPGRSPKRLIYQVSNLGSGVPDRFSGTGSQKDFTLKISRVEAEDLGVYYCAQTTHFPPTFGSGTKLEIK
B11: antibody clone 7F12 (antibody, V domains shown)
VH: B10 VH with D31N, A49T, N53Y, F59Y, V70I, G90D, T91S, T98P, I99V
VL: B10 VL
B12: antibody clone 13F4 (antibody, V domains shown)
VH: B10 VH with Q3H, G26R, D31N, G66A, V70I, N74S, K76E, G90D
VL: B10 VL
B13: antibody clone 14B3 (antibody, V domains shown)
VH: B10 VH with T28S, D31N, S54N, V70I, D84H, G90D
VL: B10 VL with I21M, R47G

The binders below were run against T1, human TREM2 (Triggering Receptor …) (assay: hybridoma supernatant screen: peptide ELISA and detection of TREM2 on the cell surface).
Method: Human TREM2-reactive hybridoma supernatants are screened for their ability to detect TREM2 on the cell surface of HEK293 Flp-In cells stably overexpressing human wild-type TREM2. This procedure is described in Kleinberger, G., et al., TREM2 mutations implicated in neurodegeneration impair cell surface transport and phagocytosis. Sci Transl Med, 2014. 6(243): p. 243. In particular, HEK293 Flp-In cells either expressing human full-length TREM2 or empty vector (control) are incubated with the respective TREM2-reactive supernatants. Binding of TREM2-reactive supernatants is visualized using isotype-specific antibodies. A detailed description of the generation and selection of monoclonal antibodies against the TREM2 cleavage site is given in the Examples.
A peptide comprising the amino acid sequence of residues 145-155 (SEQ ID NO:2) of human TREM2 or residues 153-162 (SEQ ID NO:3) of human TREM2 was synthesized and coupled at the N-terminus to ovalbumin or biotin (Peps4LS, Heidelberg, Germany). Rats were immunized subcutaneously (s.c.) and intraperitoneally (i.p.) with a mixture of 50 μg OVA-coupled peptide in […] PBS, 5 nmol CpG2006 (TIB MOLBIOL, Berlin, Germany), and […] incomplete Freund's adjuvant. After 6 weeks, a boost without Freund's adjuvant was given i.p. and s.c. 3 days before fusion. Fusion of the myeloma cell line P3X63-Ag8.653 with the rat immune spleen cells was performed using polyethylene glycol 1500 according to standard procedure (Koehler and Milstein, Nature. 1975, 256:495-497). After fusion, the cells were plated in 96-well plates using RPMI 1640 with 20% fetal calf serum, penicillin/streptomycin, glutamine, pyruvate, and non-essential amino acids supplemented with HAT HybriMax medium supplement (Sigma,). Hybridoma supernatants were tested in an enzyme-linked immunoassay using biotinylated peptides (0.2 μg/ml) comprising the amino acid sequence of residues 145-155 of human TREM2 or residues 153-162 of human TREM2 bound to avidin-coated plates. After blocking with PBS/2% FCS, hybridoma supernatants were added for 30 min. After one wash with PBS, bound antibodies were detected with a cocktail of HRP-conjugated mAbs against the four rat IgG isotypes. HRP was visualized with ready to use TMB substrate (1-Step™ Ultra TMB-ELISA, Thermo).

binding result | Binder
binds | B1
binds | B2
binds | B3
binds | B4
binds | B5
binds | B6
binds | B7
binds | B8
binds | B9

The binders below were run against T1, human TREM2 (Triggering Receptor …) (assay: cell-based or functional assay).

decrease of TREM2 cleavage | increase of the level of mature TREM2 | Binder
~70% | ≤ 5 fold | B10
~70% | ≤ 5 fold | B11
~70% | ≤ 5 fold | B12
~70% | ≤ 5 fold | B13
